{"source": "patent US20190203302A1", "about": "“BIOMARKER C[…]-1 AS ACTIVE INGREDIENT, FOR DIAGNOSIS OF RADIATION-RESISTANT CANCER OR PREDICTION OF RADIATION THERAPY PROGNOSIS” (UNIVERSITY OF ULSAN FOUNDATION FOR INDUSTRY COOPERATION, priority 2016, published 2019)", "molecular_target": "T1, LRP-1 (Homo sapiens, UniProt Q07954)", "T1 construct": "Proteins were extracted from colon cancer tissues of each case according to radiation irradiation; from tissue; host or cells: patient colon cancer tissue (0 Gy / 2 Gy) transplanted and subcultured in nude mice", "T1 sequence (Q07954 20-4544)": "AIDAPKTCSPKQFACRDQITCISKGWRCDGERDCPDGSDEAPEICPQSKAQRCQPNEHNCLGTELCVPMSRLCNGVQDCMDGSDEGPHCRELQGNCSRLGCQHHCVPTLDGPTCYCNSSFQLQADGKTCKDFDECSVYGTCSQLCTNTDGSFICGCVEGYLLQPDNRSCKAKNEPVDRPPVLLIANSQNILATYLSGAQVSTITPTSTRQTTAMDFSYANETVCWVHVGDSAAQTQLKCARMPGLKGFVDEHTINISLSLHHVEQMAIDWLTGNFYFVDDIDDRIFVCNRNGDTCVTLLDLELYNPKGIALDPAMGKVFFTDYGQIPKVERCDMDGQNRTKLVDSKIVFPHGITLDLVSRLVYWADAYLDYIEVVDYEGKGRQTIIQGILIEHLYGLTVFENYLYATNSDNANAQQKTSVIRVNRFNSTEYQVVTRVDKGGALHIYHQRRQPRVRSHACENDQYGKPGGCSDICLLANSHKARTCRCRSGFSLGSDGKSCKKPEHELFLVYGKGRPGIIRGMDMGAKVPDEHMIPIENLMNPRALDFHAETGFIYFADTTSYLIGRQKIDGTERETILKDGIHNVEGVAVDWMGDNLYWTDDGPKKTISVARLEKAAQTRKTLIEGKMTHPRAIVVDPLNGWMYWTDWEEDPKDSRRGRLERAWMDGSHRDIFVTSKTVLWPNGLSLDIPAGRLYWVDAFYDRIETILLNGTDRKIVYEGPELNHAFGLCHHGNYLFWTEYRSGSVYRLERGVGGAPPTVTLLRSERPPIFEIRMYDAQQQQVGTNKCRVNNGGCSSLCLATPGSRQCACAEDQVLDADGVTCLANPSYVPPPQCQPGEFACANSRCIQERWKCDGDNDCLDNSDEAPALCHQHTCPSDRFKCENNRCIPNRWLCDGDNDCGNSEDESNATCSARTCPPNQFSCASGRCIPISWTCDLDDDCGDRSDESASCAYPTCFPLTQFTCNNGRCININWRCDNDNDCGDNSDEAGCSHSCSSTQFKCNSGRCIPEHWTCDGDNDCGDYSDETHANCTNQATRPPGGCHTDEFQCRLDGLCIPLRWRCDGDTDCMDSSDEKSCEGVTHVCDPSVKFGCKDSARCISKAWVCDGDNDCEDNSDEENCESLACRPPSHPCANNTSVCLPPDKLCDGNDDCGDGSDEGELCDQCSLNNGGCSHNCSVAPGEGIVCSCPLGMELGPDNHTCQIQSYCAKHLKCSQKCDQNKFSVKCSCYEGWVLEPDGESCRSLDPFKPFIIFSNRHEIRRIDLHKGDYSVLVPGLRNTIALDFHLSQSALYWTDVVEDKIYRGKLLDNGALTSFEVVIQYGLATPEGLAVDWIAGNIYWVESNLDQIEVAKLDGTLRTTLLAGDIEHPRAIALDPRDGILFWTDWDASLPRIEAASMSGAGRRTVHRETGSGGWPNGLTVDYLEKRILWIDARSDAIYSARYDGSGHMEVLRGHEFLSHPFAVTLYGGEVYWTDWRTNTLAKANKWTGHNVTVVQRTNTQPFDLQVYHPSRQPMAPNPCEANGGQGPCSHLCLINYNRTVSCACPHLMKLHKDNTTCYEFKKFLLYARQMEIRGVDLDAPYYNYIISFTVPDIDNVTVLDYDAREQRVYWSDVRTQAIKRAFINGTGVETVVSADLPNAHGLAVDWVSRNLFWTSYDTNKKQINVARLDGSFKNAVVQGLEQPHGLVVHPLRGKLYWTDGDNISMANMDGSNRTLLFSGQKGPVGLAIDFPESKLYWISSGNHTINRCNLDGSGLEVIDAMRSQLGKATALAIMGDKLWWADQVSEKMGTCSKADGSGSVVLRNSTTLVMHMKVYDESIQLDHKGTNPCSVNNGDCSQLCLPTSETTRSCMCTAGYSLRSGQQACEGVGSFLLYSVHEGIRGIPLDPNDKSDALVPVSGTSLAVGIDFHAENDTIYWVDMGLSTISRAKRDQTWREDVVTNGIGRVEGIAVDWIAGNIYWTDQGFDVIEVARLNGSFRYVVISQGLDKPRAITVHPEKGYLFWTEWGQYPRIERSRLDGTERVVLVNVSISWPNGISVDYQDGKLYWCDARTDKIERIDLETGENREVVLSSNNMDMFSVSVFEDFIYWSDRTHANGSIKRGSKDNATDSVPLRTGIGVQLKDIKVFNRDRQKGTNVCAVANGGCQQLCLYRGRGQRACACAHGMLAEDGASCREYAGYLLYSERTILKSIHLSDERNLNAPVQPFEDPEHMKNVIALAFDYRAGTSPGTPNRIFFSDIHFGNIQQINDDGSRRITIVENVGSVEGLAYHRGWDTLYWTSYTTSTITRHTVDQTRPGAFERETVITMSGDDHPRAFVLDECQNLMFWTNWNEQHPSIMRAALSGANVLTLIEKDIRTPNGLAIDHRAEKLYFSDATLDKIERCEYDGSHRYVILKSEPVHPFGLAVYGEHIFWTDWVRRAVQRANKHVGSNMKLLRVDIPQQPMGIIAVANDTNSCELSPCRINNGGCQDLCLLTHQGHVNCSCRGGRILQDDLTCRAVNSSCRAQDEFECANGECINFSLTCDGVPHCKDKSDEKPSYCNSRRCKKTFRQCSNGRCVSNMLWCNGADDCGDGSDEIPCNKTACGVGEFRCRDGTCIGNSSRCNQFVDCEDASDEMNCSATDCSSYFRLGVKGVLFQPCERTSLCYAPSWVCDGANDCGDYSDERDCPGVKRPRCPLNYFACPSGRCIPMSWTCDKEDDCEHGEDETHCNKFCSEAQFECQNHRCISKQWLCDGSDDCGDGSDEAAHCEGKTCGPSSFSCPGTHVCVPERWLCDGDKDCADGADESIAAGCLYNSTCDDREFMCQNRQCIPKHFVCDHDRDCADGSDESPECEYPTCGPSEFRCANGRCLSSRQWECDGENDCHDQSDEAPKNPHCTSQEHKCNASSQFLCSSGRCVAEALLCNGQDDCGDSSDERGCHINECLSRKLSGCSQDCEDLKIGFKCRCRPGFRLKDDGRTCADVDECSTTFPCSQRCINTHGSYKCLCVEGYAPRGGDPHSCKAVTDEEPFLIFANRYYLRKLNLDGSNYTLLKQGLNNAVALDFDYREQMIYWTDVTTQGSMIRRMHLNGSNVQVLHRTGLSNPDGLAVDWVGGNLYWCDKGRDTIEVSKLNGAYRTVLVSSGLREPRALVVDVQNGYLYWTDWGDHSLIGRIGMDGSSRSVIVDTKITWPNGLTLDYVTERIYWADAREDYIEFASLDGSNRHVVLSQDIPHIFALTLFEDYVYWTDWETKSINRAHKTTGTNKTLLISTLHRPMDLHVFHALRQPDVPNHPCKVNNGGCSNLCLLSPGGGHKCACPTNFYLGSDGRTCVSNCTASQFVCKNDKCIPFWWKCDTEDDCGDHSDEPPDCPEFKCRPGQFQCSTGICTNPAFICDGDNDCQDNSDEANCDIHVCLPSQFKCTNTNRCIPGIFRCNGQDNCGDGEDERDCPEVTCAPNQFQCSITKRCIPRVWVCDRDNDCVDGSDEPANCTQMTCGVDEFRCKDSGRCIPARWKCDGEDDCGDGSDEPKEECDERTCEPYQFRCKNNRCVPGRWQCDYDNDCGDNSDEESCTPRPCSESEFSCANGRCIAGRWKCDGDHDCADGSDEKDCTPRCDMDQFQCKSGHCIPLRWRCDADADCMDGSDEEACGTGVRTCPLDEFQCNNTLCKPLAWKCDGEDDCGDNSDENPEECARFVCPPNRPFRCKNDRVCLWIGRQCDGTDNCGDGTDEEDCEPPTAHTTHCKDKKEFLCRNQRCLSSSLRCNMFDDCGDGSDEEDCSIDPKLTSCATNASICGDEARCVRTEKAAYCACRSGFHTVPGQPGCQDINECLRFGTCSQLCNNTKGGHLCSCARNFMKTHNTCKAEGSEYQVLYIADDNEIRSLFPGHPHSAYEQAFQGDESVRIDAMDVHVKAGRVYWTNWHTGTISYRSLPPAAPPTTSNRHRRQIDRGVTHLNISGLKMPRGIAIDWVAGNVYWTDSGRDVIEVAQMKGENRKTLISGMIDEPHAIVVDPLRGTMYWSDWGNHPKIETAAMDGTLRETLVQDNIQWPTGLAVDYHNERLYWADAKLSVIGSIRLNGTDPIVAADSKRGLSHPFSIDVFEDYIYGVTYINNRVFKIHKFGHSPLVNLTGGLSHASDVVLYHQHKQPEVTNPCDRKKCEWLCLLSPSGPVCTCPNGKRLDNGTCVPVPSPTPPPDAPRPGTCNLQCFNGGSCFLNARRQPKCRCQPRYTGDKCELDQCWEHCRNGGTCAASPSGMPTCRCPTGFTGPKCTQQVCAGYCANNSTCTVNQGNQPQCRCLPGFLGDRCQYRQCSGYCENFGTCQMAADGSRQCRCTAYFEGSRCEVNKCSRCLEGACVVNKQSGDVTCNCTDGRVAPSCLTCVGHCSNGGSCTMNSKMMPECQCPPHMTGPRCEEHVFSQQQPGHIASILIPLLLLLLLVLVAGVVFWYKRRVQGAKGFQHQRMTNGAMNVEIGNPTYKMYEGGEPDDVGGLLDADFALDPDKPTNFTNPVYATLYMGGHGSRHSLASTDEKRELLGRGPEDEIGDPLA", "assay": "Immunoprecipitation assay of TPSFSKI peptide phage and LRP-1, confirmed by western blotting", "assay_type": "binding", "settings": "proteins extracted from colon cancer tissues, 0 Gy/2 Gy irradiation, LRP-1 and M13 antibodies, IgG beads", "text": "Lysate: 0 Gy/2 Gy protein extracted from radiation colon cancer tissue, IP (B5 phage): 0 Gy/2 Gy Immunoprecipitation with a specific peptide phage in protein extracted from radiation colon cancer tissue, IP (wt phage): 0 Gy/2 Gy Immunoprecipitation in protein extracted from radiation colon cancer tissue with phage without peptide, IP (w/o Ab): 0 Gy/2 Gy Immunoprecipitation without antibody in protein extracted from radiation colon cancer tissue, phage lysate: protein extracted from peptide phage targeting by irradiation in radiation resistant colon cancer tissue, Antibody: LRP-1 antibody\nBased on the indirect verification that LRP-1 is a binding partner protein of the TPSFSKI peptide sequence in Examples 3 to 5, an immunoprecipitation assay was performed to directly determine whether […] was bound to the TPSFSKI sequence. Proteins were extracted from colon cancer tissues of each case according to radiation irradiation, and immunoprecipitation was performed using LRP-1 and M13 antibodies and IgG beads.", "data": [{"substance": "TPSFSKI [TPSFSKI peptide, used as peptide phage]", "values": [{"measurement": "binding of LRP-1 to the TPSFSKI sequence (immunoprecipitation)", "result": "LRP-1 is a binding partner protein of TPSFSKI peptide"}]}]}
